B1: Fibulin-5 (Homo sapiens), Q9UBX5 (parent)
chain: MPGIKRILTVTILALCLPSPGNAQAQCTNGFDLDRQSGQCLDIDECRTIPEACRGDMMCVNQNGGYLCIPRTNPVYRGPYSNPYSTPYSGPYPAAAPPLSAPNYPTISRPLICRFGYQMDESNQCVDVDECATDSHQCNPTQICINTEGGYTCSCTDGYWLLEGQCLDIDECRYGYCQQLCANVPGSYSCTCNPGFTLNEDGRSCQDVNECATENPCVQTCVNTYGSFICRCDPGYELEEDGVHCSDMDECSFSEFLCQHECVNQPGTYFCSCPPGYILLDDNRSCQDINECEHRNHTCNLQQTCYNLQGGFKCIDPIRCEEPYLRISDNRCMCPAENPGCRDQPFTILYRDMDVVSGRSVPADIFQMQATTRYPGAYYIFQIKSGNEGREFYMRQTGPISATLVMTRPIKGPREIQLDLEMITVNTVINFRGSSVIRLRIYVSQYPF

Variants of: B1
Conditions: with eln_human ELN

| effect of a mutation on the interaction | Variant |
| --- | --- |
| decreasing interaction | C217R |
| decreasing interaction | S227P |

From IntAct's records for PubMed 19570982
